Data from the supplement of paper PMC7877785.
± gives the uncertainty stated by the source.

Assay: self-splicing fitness, log relative to wild type (ln ratio); higher = more splicing; Tetrahymena group I intron in knt gene, E. coli kanamycin selection, DiMSum; sequences stand for … in CUCUCU…GGAGGGAAAAGUUAUCAGGCAUGCACCUGGUAGCUAGUCUUUAAACCAAUAGAUUGCAUCGGUUUAAAAGGCAAGACCGUCAAAUUGCGGGAAAGGGGUCAACAGCCGUUCAGUACCAAGUCUCAGGGGAAACUUUGAGAUGGCCUUGCAAAGGGUAUGGUAAUAAGCUGACGGACAUGGUCCUAACCACGCAGCCAAGUCCUAAGUCAACAGAUCUUCUGUUGAUAUGGAUGCAGUUCACAGACUAAAUGUCGGUCGGGGAAGAUGUAUUCUUCUCAUAAGAUAUAGUCGGACCUCUCCUUAAUGGGAGCUAGCGGAUGAAGUGAUGCAACACUGGAGCCGCUGGGAACUAAUUUGUAUGCGAAAGUAUAUUGAUUAGUUUUGGAGUACUCGUGGUCG
How it was run: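 DiMSum derived fitness as the error-weighted combination of fold changes across replicates, kanamycin versus no kanamycin, normalised to wild type. E. coli BL21(DE3) held the library, which randomised all eight P1ex-region intron nucleotides within the knt kanamycin-resistance gene on pET-22b(+). Six replicate transformations grew overnight at 37°C or 30°C on LB agar with or without 25 μg/mL kanamycin, also containing 100 μg/mL carbenicillin, 50 μM IPTG and 0.2% rhamnose, and pooled colonies were amplicon-sequenced on an Illumina HiSeq 2500.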

Sequence	self-splicing fitness (ln) (30 °C)	self-splicing fitness (ln) (37 °C)
UCAUAGCAAUAUUACGUUGU	-4.35 ± 0.23	-2.77 ± 0.21
UCCAAGCAAUAUUACGAAAU	-2.02 ± 0.2	-1.98 ± 0.21
UCCAAGCAAUAUUACGAAUA	-2.4 ± 0.16	-1.13 ± 0.097
UCCAAGCAAUAUUACGAAUC		-1.28 ± 0.19
UCCAAGCAAUAUUACGAAUU	-3.42 ± 0.14	-2.5 ± 0.16
UCCAAGCAAUAUUACGACCG		-1.38 ± 0.41
UCCAAGCAAUAUUACGAGCU	-3.58 ± 0.16	-3 ± 0.25
UCCAAGCAAUAUUACGAGGU	-3.4 ± 0.14	-1.8 ± 0.11
UCCAAGCAAUAUUACGAUAU	-3.24 ± 0.19	-2.57 ± 0.16
UCCAAGCAAUAUUACGAUGG	-1.01 ± 0.059	0.16 ± 0.083
UCCAAGCAAUAUUACGCCAU	-4.34 ± 0.28	-3.21 ± 0.27
UCCAAGCAAUAUUACGCCCU	-2.49 ± 0.24	-1.32 ± 0.26
UCCAAGCAAUAUUACGCCGC	-2.64 ± 0.32	
UCCAAGCAAUAUUACGCUAC	-3.8 ± 0.27	-2.48 ± 0.24
UCCAAGCAAUAUUACGGACC	-2.63 ± 0.36	-0.119 ± 0.18
UCCAAGCAAUAUUACGGAGC	-3.35 ± 0.37	-2.44 ± 0.26
UCCAAGCAAUAUUACGGAGU	-2.17 ± 0.12	-1.44 ± 0.13
UCCAAGCAAUAUUACGGAUG	-3.77 ± 0.13	-3.2 ± 0.25
UCCAAGCAAUAUUACGGGCG	-1.05 ± 0.073	-0.839 ± 0.085
UCCAAGCAAUAUUACGGGGG	-3.91 ± 0.2	-3.41 ± 0.24
UCCAAGCAAUAUUACGGGUU	-3.89 ± 0.14	-1.75 ± 0.097
UCCAAGCAAUAUUACGUCAG	-3.02 ± 0.15	-1.69 ± 0.13

Sequence	self-splicing fitness (ln) (30 °C)	self-splicing fitness (ln) (37 °C)
UCCAAGCAAUAUUACGUCCU	-4.09 ± 0.31	-2.95 ± 0.43
UCCAAGCAAUAUUACGUCGC	-3.47 ± 0.21	-3.12 ± 0.28
UCCCAGCAAUAUUACGAAUU	-3.04 ± 0.19	-2.27 ± 0.17
UCCCAGCAAUAUUACGACAA	-2.16 ± 0.15	-1.37 ± 0.14
UCCCAGCAAUAUUACGAGCA	-0.711 ± 0.1	0.0665 ± 0.13
UCCCAGCAAUAUUACGAGGA	-2.18 ± 0.11	-1.36 ± 0.12
UCCCAGCAAUAUUACGAUCU	-3.77 ± 0.23	-1.95 ± 0.24
UCCCAGCAAUAUUACGCACG	-3.4 ± 0.17	-2.6 ± 0.23
UCCCAGCAAUAUUACGCGUA	-0.178 ± 0.066	0.0254 ± 0.079
UCCCAGCAAUAUUACGGACA	-1.63 ± 0.092	-0.126 ± 0.081
UCCCAGCAAUAUUACGGGAU	-3.59 ± 0.14	-3.46 ± 0.21
UCCCAGCAAUAUUACGGGUA	-0.837 ± 0.065	-0.432 ± 0.071
UCCCAGCAAUAUUACGGGUC	-3.67 ± 0.16	-3.35 ± 0.22
UCCCAGCAAUAUUACGGUCG	-1.76 ± 0.071	-0.748 ± 0.078
UCCCAGCAAUAUUACGGUGC	-2.41 ± 0.13	-1.51 ± 0.13
UCCCAGCAAUAUUACGUAGG	-4.06 ± 0.17	-1.08 ± 0.11
UCCCAGCAAUAUUACGUCAC	-4.1 ± 0.33	-3.23 ± 0.33
UCCCAGCAAUAUUACGUCCU	-3.36 ± 0.18	-1.48 ± 0.15
UCCCAGCAAUAUUACGUCGA	-0.251 ± 0.071	0.317 ± 0.099
UCCCAGCAAUAUUACGUCGC	-3.47 ± 0.27	-2.4 ± 0.22
UCCCAGCAAUAUUACGUUUU	-3.06 ± 0.11	-1.81 ± 0.15
